Source: US20180335435A1 (METAFORA BIOSYSTEMS, published 2018)

Experiments:
[1] = biological target: T1, human CAT1 (cationic amino acid transporter-1, SLC7A1) (human, UniProt P30825 1-629)
[2] = biological target: T1, human CAT1 (cationic amino acid …); assay: radiolabeled arginine uptake in HEK293T cells expressing BLV.RBD rFc

T1 sequence (P30825 whole entry): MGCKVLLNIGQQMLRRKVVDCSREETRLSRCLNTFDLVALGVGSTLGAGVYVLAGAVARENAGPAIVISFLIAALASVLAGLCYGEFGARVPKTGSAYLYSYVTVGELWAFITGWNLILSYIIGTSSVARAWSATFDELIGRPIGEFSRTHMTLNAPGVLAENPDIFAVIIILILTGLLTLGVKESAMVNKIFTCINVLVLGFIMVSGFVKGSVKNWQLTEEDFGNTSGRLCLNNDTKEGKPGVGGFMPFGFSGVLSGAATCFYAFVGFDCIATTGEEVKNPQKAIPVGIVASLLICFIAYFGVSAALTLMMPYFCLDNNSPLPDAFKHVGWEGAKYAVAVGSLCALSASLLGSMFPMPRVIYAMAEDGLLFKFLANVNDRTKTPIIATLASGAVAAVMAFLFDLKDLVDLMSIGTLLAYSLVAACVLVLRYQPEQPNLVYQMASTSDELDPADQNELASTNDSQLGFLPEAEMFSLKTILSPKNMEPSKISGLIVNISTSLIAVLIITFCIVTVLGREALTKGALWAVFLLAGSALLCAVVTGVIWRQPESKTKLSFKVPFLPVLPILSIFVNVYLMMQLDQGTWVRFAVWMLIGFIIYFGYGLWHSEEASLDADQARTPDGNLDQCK

B1: BLV.RBD-mFc ligand (receptor-binding domain of the bovine leukemia virus envelope glycoprotein tagged in frame with the constant fragment of mouse … (Fc fusion)
chain: WRCSLSLGNQQWMTTYNQEAKFFISIDQILEAHNQSPFCPRSPRYTLDFVNGYPKIYWPPPQGRRRFGARAMVTYDCEPRCPYVGADHFDCPHWDNASQADQGSFYVNHQTLFLHLKQCHGIFTLTWEIWGYDPLITFSLHKIPAPPQGSVDVPRDCGCKPCICTVPEVSSVFIFPPKPKDVLTITLTPKVTCVVVDISKDDPEVQFSWFVDDVEVHTAQTQPREEQFNSTFRSVSELPIMHQDWLNGKEFKCRVNSAAFPAPIEKTISKTKGRPKAPQVYTIPPPKEQMAKDKVSLTCMITDFFPEDITVEWQWNGQPAENYKNTQPIMDTDGSYFVYSKLNVQKSNWEAGNTFTCSVLHEGLHNHHTEKSLSHSPGK
notes: Used as a 1/10 dilution, detected with anti-mouse IgG1-Alexa Fluor 488; also called BLV.RBD ligand; BLV.RBD tagged with mouse Fc (mFc)
In the case of B1, the “fold increase of binding on CAT1 overexpression against empty vector” value [1] is reported as 3 fold.

B2: BLV.RBD fused to a rabbit Fc (rFc) tag, expressed from pCSI expression vector (Fc fusion)
chain: WRCSLSLGNQQWMTTYNQEAKFFISIDQILEAHNQSPFCPRSPRYTLDFVNGYPKIYWPPPQGRRRFGARAMVTYDCEPRCPYVGADHFDCPHWDNASQADQGSFYVNHQTLFLHLKQCHGIFTLTWEIWGYDPLITFSLHKIPAPPQGSAPSTCSKPTCPPPELLGGPSVFIFPPKPKDTLMISRTPEVTCVVVDVSQDDPEVQFTWYINNEQVRTARPPLREQQFDCTIRVVSTLPIAHQDWLRGKEFKCKVHNKALPAPIEKTISKARGQPLEPKVYTMGPPREELSSRSVSLTCMINGFYPSDISVEWEKNGKAEDNYKTTPAVLDSDGSYFLYSKLSVPTSEWQRGDVFTCSVMHEALHNHYTQKSISRSPGK
notes: also called pCSI BLV.RBD rFc
B2: binds [2].
